What was measured:
Assay type in all cases: cell-based
[1] = biological target: T1, human A2aR-expressing CHO cells (Homo sapiens, UniProt P29274); assay: pH-sensitive dye (Zenon pHrodo iFL RED) based internalization assay; details: 24 hours
T1 construct: expressed in transfected cells; host or cells: CHO
Source text: The Invitrogen™ Zenon™ pHrodo™ iFL RED human IgG Labeling Reagents (Cat. Z25612) Z25612) is low-pH sensitive dye and was used to determine the internalizing properties of the exemplary anti-A2aR antibodies following manufacture's instruction. The internalization of antibodies coupled with the Zenon™ pHrodo™ iFL RED human IgG Labeling reagents increase the fluorescence signal at low pH intracellular compartment in a cell, providing a method for visualizing internalization under fluorescent microscopy.
Twenty-five microliters (25 μL) of 4× working solution of Zenon™ pHrodo™ iFL IgG Labeling Reagent were also prepared in freestyle CHO expression medium and then added to each well of a 96-well plate containing antibodies. The solutions in the 96-well plate were mixed and incubated for 5 minutes at room temperature to allow the labeling complexes to form. Afterwards, fifty microliters (50 μl) of 2×10^6/ml human A2aR-expressing CHO cells were added to each well containing labeled antibodies. Cells were then incubated with the labeling complex for 24 hours under standard cell culture conditions. Cells were analyzed under immunofluorescent microscope (Invitrogen EVOS cell imaging system M5000) to visualize the internalization of antibodies by cells. Internalization of antibody was imaged using EVOS imaging systems (Invitrogen).

[2] = test system: human PBMCs (CD4 T, CD8 T, NK cells); assay: Restoration of IFN-γ and IL-2 production of NECA-suppressed T cells and NK cells (intracellular cytokine staining); details: anti-CD3/28 Dynabeads activated, 0.1 μM NECA; for restoring IFN-γ production in human CD4 T suppressed by NECA (FIG. 5A): compared with AB928, AZD4635 and CPI-444; for restoring IL-2 production in human CD4 T suppressed by NECA (FIG. 5B): compared with AZD4635 and CPI-444
[3] = biological target: human A2aR-expressing HEK293 cells (Homo sapiens, UniProt P29274); assay: Flow cytometry based internalization assay; details: 1, 0.5 and 0.25 μg/ml, 1, 2 and 4 hours at 37° C.
Method: 2×10^5/well freshly cultured human A2aR-expressing HEK293 cells (BPS Bioscience) were incubated with antibodies to be tested at indicated concentration (1, 0.5 and 0.25 μg/ml) on ice for 45 minutes. Parental 3F6 were used as positive control. After wash with FACS buffer, samples were split into 4 sets. One set of samples were maintained on ice. The other three sets of samples were left in 37° C., 5% CO2 incubator for further incubation for 1, 2 and 4 hours. All four sets of samples were followed by staining with PE-conjugated goat-anti-human Fc antibody (1:400, Jackson Immuno Research, Cat. 109-116-098) for 30 minutes, and then washed with cold FACS buffer, cells were then stained with 1:100 diluted 7−AAD (Biolegend) and then fixed with 2% of paraformaldehyde (diluted from 10% paraformaldehyde (MilliporeSigma, Cat. R04586)). All samples were analyzed on Guava 11HT or 5HT (Luminex). The mean fluorescence intensity (MFI) was obtained and data was analyzed using Flowjo software. Internalization rate was calculated as: […]

[4] = test system: human PBMCs (CD4 T, CD8 T, NK cells); assay: Restoration of IFN-γ and IL-2 production of NECA-suppressed T cells and NK cells (intracellular cytokine staining); details: for % of cells IFNγ+, CD4 T cells / % of cells IFNγ+, CD8 T cells / % of cells IFNγ+, NK cells / % of cells IL-2+, CD4 T cells / % of cells IL-2+, CD8 T cells: NECA, test substance 1 μg/ml; for restored production of IFN-γ and IL-2 by NECA-suppressed CD8 T cell: compared with AB928, CPI-444 and AZD4635; for restored production of IFN-γ and IL-2 by NECA-suppressed NK cells: compared with the tested small molecule inhibitors
Method: (§1) Two hundred thousand (2×10^5) human peripheral blood mononuclear cells (PBMCs) human PBMC in complete IMDM medium were aliquoted into each well in a 96-well plate and the cells in the 96-well plate were pre-incubated with antibodies or small molecule inhibitors at indicated concentration for 90 minutes, followed by addition of T cell activator anti-CD3/28 dynabeads (Gibco, Cat #11132D) at ratio of 1:4 (Beads: PBMC, v/v) and NECA (DiscoverX, Cat #92-1191, final concentration […]). Cells were cultured in an incubator at 37° C., 5% CO2 for 24 hours. Cells were then collected and stimulated with anti-CD3/28 dynabeads in the presence of GolgiPlug™ Protein Transport Inhibitor (BD Biosciences, Cat #555028) according to manufacturer's manual for 4 hours. Thereafter, cells were incubated with human TruStain FcX block (Biolegend, Cat #422302) and True-Stain monocyte blocker (Biolegend, Cat #426103) for 15 minutes according the manufacturer's manual, and cells were then stained with surface markers PE-anti-CD4 (Biolegend, Cat #300550), PerCP-cy5.5-anti-CD8 (Biolegend, Cat #301032), APC/cy7-anti-CD3 (Biolegend, Cat #300426) and PE/cy7-anti-CD56 (Biolegend, Cat #362509), PE/cy7-anti-CD56 (Biolegend, Cat #362509), BV711-anti-CD25 (Biolegend, Cat #302636) and BV605-anti-CD69 (Biolegend, Cat #31938 After wash with FACS buffer, cells were stained with BV421-anti-IFN-γ (BD Bioscience, Cat #562988) and APC anti-IL-2 (BD Bioscience, cat #551383) using intracellular cytokine staining kit (BD Biosciences, cat #555028) following manufacturer's instruction. Stained samples were analyzed on FACSAria III machine. Data were analyzed using Flowjo software.

[5] = test system: human PBMCs (CD4 and CD8 T cells); assay: Restoration of CD25 and CD69 activation markers on NECA-suppressed CD4 and CD8 T cells; details: test substance 1 μg/ml
Method: as §1

T1 sequence (P29274 whole entry): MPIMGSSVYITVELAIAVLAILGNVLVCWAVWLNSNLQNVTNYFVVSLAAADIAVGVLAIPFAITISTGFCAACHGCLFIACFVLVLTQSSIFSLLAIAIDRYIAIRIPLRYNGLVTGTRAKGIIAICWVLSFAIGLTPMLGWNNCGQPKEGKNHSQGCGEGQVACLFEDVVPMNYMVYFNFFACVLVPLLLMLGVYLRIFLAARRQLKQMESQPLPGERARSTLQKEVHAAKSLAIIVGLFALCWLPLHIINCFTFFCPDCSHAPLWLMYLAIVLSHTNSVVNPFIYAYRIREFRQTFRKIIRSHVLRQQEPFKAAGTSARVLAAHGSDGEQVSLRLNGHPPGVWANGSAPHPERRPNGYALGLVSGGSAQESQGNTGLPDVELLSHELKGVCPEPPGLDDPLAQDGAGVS
Sequence of human A2aR-expressing HEK293 cells (P29274 whole entry): as above

Molecule | induction of internalization (pHrodo fluorescence microscopy, FIG. 3) [1] | restoring IFN-γ production in human CD4 T suppressed by NECA (FIG. 5A) ([2]; listed as Hu3F6-VH3/Hu3F6-VL5) | restoring IFN-γ production in human CD4 T suppressed by NECA (FIG. 5A) ([2]; listed as Hu3F6-VH3/VL5) | restoring IL-2 production in human CD4 T suppressed by NECA (FIG. 5B) [2] | internalization upon binding to cell surface A2aR (percentage of internalization, FIG. 2) [3] | % of cells IFNγ+, CD4 T cells [4] | % of cells IFNγ+, CD8 T cells [4] | % of cells IFNγ+, NK cells [4] | % of cells IL-2+, CD4 T cells [4] | % of cells IL-2+, CD8 T cells [4] | restored production of IFN-γ and IL-2 by NECA-suppressed CD8 T cell [4] | restored production of IFN-γ and IL-2 by NECA-suppressed NK cells [4] | % of cells CD25+, CD4 T cells [5] | % of cells CD25+, CD8 T cells [5] | % of cells CD69+, CD4 T cells [5] | % of cells CD69+, CD8 T cells [5] | restoring IFN-γ production in human CD4 T suppressed by NECA (FIG. 5A) ([2]; listed as Hu3F6-VH5/Hu3F6-VL5) | restoring IFN-γ production in human CD4 T suppressed by NECA (FIG. 5A) ([2]; listed as Hu3F6-VH5/VL5)
Hu3F6-H3/Hu3F6-L5: humanized anti-A2aR IgG1 FES antibody; HCVR SEQ ID NO:60, LCVR SEQ ID NO:80 (antibody, V domains shown) VH: EVQLVQSGAEVKKPGASVKVSCKTSGFAFTSYWMNWVRQAPGQGLEWIGRIDPSDSEAHYHHKFWGRATLTVDTSSSTVYMELSSLRSEDTAVYYCLRSLYGKGDYWGHGTTVTVSS VL: DVVMTQTPLSLSVTPGQPASISCRSSQSLVHRNGNTYLEWYLQKPGQSPQLLIYKVSNRFSGVPDRFSGSGSGTDFTLKISRVEAEDVGVYYCYQGSHVPLTFGGGTKVEIK | internalization can be induced | higher potency in restoring IFN-γ production | can restore the intracellular IFN gamma and IL2 production | can restore the intracellular IFN gamma and IL2 production | induce internalization upon binding to cell surface A2aR | 4.35% | 14.1% | 17.8% | 13.4% | 3.29% | restored production of IFN-γ and IL-2 by NECA-suppressed CD8 T cell, with higher potency | restored production of IFN-γ and IL-2 by NECA-suppressed NK cells, with a potency higher | 61.5% | 36% | 57.9% | 54.5% |  | 
Hu3F6-H5/Hu3F6-L5: humanized anti-A2aR IgG1 FES antibody; HCVR SEQ ID NO:62, LCVR SEQ ID NO:80 (antibody, V domains shown) VH: EVQLVQSGAEVKKPGASVKVSCKTSGFAFTSYWMNWVRQAPGQGLEWIGRIDPSDSEAHYAHKFWGRATLTVDKSSSTVYMELSSLRSEDTAVYYCLRSLYGKGDYWGHGTTVTVSS VL: DVVMTQTPLSLSVTPGQPASISCRSSQSLVHRNGNTYLEWYLQKPGQSPQLLIYKVSNRFSGVPDRFSGSGSGTDFTLKISRVEAEDVGVYYCYQGSHVPLTFGGGTKVEIK | internalization can be induced |  |  | can restore the intracellular IFN gamma and IL2 production | induce internalization upon binding to cell surface A2aR | 4.29% | 14.8% | 16.6% | 13.2% | 2.98% | restored production of IFN-γ and IL-2 by NECA-suppressed CD8 T cell, with higher potency | restored production of IFN-γ and IL-2 by NECA-suppressed NK cells, with a potency higher | 62.5% | 35.8% | 58.1% | 56.1% | higher potency in restoring IFN-γ production | can restore the intracellular IFN gamma and IL2 production

Source: patent US20250206828A1, “ANTI-ADENOSINE RECEPTOR (A2aR) ANTIBODIES AND THE USE THEREOF” (Adept Therapeutics Inc., priority 2022, published 2025)
